Experimental data taken from paper PMC7218104, “Consensus Design of an Evolved High-Redox Potential Laccase” (Frontiers in Bioengineering and Biotechnology, 2020).
Changes are numbered by the printed parent chain. In names and notes the source's numbering stands.

B1: OB-1 laccase (evolved variant of PM1 laccase, PM1Lac) (basidiomycete PM1; A260P/A482T/D302E/H229Y/S245G/S447N/V183A) (protein)
chain: SIGPVADLTISNGAVSPDGFSRQAILVNDVFPSPLITGNKGDRFQLNVIDNMTNHTMLKSTSIHWHGFFQHGTNWADGPAFVNQCPISTGHAFLYDFQVPDQAGTFWYHSHLSTQYCDGLRGPIVVYDPQDPHKSLYDVDDDSTVITLADWYHLAAKVGPAAPTADATLINGLGRSINTLNADLAVITVTKGKRYRFRLVSLSCDPNYTFSIDGHSLTVIEADGVNLKPQTVDSIQIFPAQRYSFVLNADQDVDNYWIRALPNSGTRNFDGGVNSAILRYEGAAPVEPTTTQTPSTQPLVESALTTLEGTAAPGNPTPGGVDLALNMAFGFAGGRFTINGASFTPPTVPVLLQILSGAQSAQDLLPSGSVYSLPANADIEISLPATSAAPGFPHPFHLHGHTFAVVRSAGSSTYNYANPVYRDVVNTGSPGDNVTIRFRTDNPGPWFLHCHIDFHLEAGFTVVMAEDIPDVAATNPVPQAWSDLCPTYDALSPDDQ
notes: mature laccase secreted from S. cerevisiae BJ5465 (pJRoC30) with evolved alpha-factor prepro-leader carrying V[alpha10]D, N[alpha23]K, A[alpha87]T; purified to homogeneity
B2: OB-1 laccase (evolved variant of PM1 laccase, PM1Lac) (basidiomycete PM1; A260P/A261G/A482T/D302E/H229Y/S245G/S447N/V183A) (protein)
chain: B1 chain with A240G
notes: as for B1

Tests used:
Experiment in all cases: purified protein
Details in all cases: sodium phosphate/citrate buffer 100 mM, pH 4.0
purified protein [1] = substrate: CCn1c(=NN=c2sc3cc(S(=O)(=O)O)ccc3n2CC)sc2cc(S(=O)(=O)O)ccc21; format: biochemical, basidiomycete PM1
purified protein [2] = substrate: COc1cc(/C=C/C(=O)O)cc(OC)c1O; format: biochemical, basidiomycete PM1
purified protein [3] = substrate: COc1cccc(OC)c1O; format: biochemical, basidiomycete PM1
purified protein [4] = substrate: COc1ccccc1O

| Protein | Km (purified protein [1]) [µM] | kcat (purified protein [1]) [s⁻¹] | kcat/Km (purified protein [1]) [M⁻¹ s⁻¹] | Km (purified protein [2]) [µM] | kcat (purified protein [2]) [s⁻¹] | kcat/Km (purified protein [2]) [M⁻¹ s⁻¹] | Km (purified protein [3]) [µM] | kcat (purified protein [3]) [s⁻¹] | kcat/Km (purified protein [3]) [M⁻¹ s⁻¹] | Km (purified protein [4]) [µM] | kcat (purified protein [4]) [s⁻¹] | kcat/Km (purified protein [4]) [M⁻¹ s⁻¹] |
| --- | --- | --- | --- | --- | --- | --- | --- | --- | --- | --- | --- | --- |
| B1 | 7 ± 0.6 | 690 ± 20.2 | 1.06e+08 | 320 ± 20 | 741 ± 14.1 | 2.29e+06 | 150 ± 10 | 565 ± 13 | 3.84e+06 | 2600 ± 400 | 117 | 44600 |
| B2 | 9 ± 0.9 | 1330 ± 42.3 | 1.4e+08 | 450 ± 60 | 1430 ± 65.2 | 3.18e+06 | 230 ± 10 | 1130 ± 18.4 | 5.56e+06 | 3400 ± 400 | 171 | 50300 |
